Test results reported in patent publication US20250339531A1, “DUX4 POLYPEPTIDES AND NUCLEIC ACIDS FOR TREATING INFLAMMATORY AND AUTOIMMUNE CONDITIONS” (Fred Hutchinson Cancer Center, priority 2021, published 2025).

Test system: proteins that co-immunoprecipitated with DUX4-CTD constructs expressed in MB135 myoblasts
Assay: LC-MS of proteins co-immunoprecipitated with DUX4-CTD (Table 1) and western validation
Assay type: binding, human
Design: key to 4. mL1dL2 + Dox + IFNG / 4. + IFNG mix / 4. longCTD + Dox + IFNG / 3. + IFNg + Dox longCTD / 3. + Dox longCTD / 3. + IFNG longCTD: peptide-spectrum matches (PSMs) per protein
Details: for 4. longCTD + Dox + IFNG: LC-MS counts of the listed protein co-immunoprecipitated with DUX4-CTD bait longCTD, experiment 4, Dox + IFNG; for 3. + Dox longCTD / 3. + IFNg + Dox longCTD: bait longCTD; for 3. + Dox longCTD: experiment 3, Dox only; for 3. + IFNg + Dox longCTD: experiment 3, IFNg + Dox; for SUM of PSMS: sum over all samples
Procedure, shortened: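 FLAG-tagged DUX4-CTD expressed in doxycycline-induced MB135 myoblasts, some also IFNG-treated; nuclear lysates in pH 7.4 NP-40 IP buffer were pre-cleared, then anti-FLAG immunoprecipitated 3 h at 4 °C. For LC-MS, FLAG-peptide elution, in-gel trypsin digest, Orbitrap analysis; proteins with ≥2 PSMs in both experiments categorised and ranked by total PSMs.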

| Molecule | 4. longCTD + Dox + IFNG | 3. + Dox longCTD | 3. + IFNg + Dox longCTD | SUM of PSMS |
| --- | --- | --- | --- | --- |
| P68104 (protein, UniProt P68104 1-462, looked up, full-length) MGKEKTHINIVVIGHVDSGKSTTTGHLIYKCGGIDKRTIEKFEKEAAEMGKGSFKYAWVLDKLKAERERGITIDISLWKFETSKYYVTIIDAPGHRDFIKNMITGTSQADCAVLIVAAGVGEFEAGISKNGQTREHALLAYTLGVKQLIVGVNKMDSTEPPYSQKRYEEIVKEVSTYIKKIGYNPDTVAFVPISGWNGDNMLEPSANMPWFKGWKVTRKDGNASGTTLLEALDCILPPTRPTDKPLRLPLQDVYKIGGIGTVPVGRVETGVLKPGMVVTFAPVNVTTEVKSVEMHHEALSEALPGDNVGFNVKNVSVKDVRRGNVAGDSKNDPPMEAAGFTAQVIILNHPGQISAGYAPVLDCHTAHIACKFAELKEKIDRRSGKKLEDGPKFLKSGDAAIVDMVPGKPMCVESFSDYPPLGRFAVRDMRQTVAVGVIKAVDKKAAGAGKVTKSAQKAQKAK | 9 | 9 | 21 | 46 |
| O43865 (protein, UniProt O43865 1-530, looked up, full-length) MSMPDAMPLPGVGEELKQAKEIEDAEKYSFMATVTKAPKKQIQFADDMQEFTKFPTKTGRRSLSRSISQSSTDSYSSAASYTDSSDDEVSPREKQQTNSKGSSNFCVKNIKQAEFGRREIEIAEQDMSALISLRKRAQGEKPLAGAKIVGCTHITAQTAVLIETLCALGAQCRWSACNIYSTQNEVAAALAEAGVAVFAWKGESEDDFWWCIDRCVNMDGWQANMILDDGGDLTHWVYKKYPNVFKKIRGIVEESVTGVHRLYQLSKAGKLCVPAMNVNDSVTKQKFDNLYCCRESILDGLKRTTDVMFGGKQVVVCGYGEVGKGCCAALKALGAIVYITEIDPICALQACMDGFRVVKLNEVIRQVDVVITCTGNKNVVTREHLDRMKNSCIVCNMGHSNTEIDVTSLRTPELTWERVRSQVDHVIWPDGKRVVLLAEGRLLNLSCSTVPTFVLSITATTQALALIELYNAPEGRYKQDVYLLPKKMDEYVASLHLPSFDAHLTELTDDQAKYLGLNKNGPFKPNYYRY |  | 7 | 11 | 19 |
| P04899 (protein, UniProt P04899 1-355, looked up, full-length) MGCTVSAEDKAAAERSKMIDKNLREDGEKAAREVKLLLLGAGESGKSTIVKQMKIIHEDGYSEEECRQYRAVVYSNTIQSIMAIVKAMGNLQIDFADPSRADDARQLFALSCTAEEQGVLPDDLSGVIRRLWADHGVQACFGRSREYQLNDSAAYYLNDLERIAQSDYIPTQQDVLRTRVKTTGIVETHFTFKDLHFKMFDVGGQRSERKKWIHCFEGVTAIIFCVALSAYDLVLAEDEEMNRMHESMKLFDSICNNKWFTDTSIILFLNKKDLFEEKITHSPLTICFPEYTGANKYDEAASYIQSKFEDLNKRKDTKEIYTHFTCATDTKNVQFVFDAVTDVIIKNNLKDCGLF | 11 |  | 1 | 29 |
| Q14240 (protein, UniProt Q14240 1-407, looked up, full-length) MSGGSADYNREHGGPEGMDPDGVIESNWNEIVDNFDDMNLKESLLRGIYAYGFEKPSAIQQRAIIPCIKGYDVIAQAQSGTGKTATFAISILQQLEIEFKETQALVLAPTRELAQQIQKVILALGDYMGATCHACIGGTNVRNEMQKLQAEAPHIVVGTPGRVFDMLNRRYLSPKWIKMFVLDEADEMLSRGFKDQIYEIFQKLNTSIQVVLLSATMPTDVLEVTKKFMRDPIRILVKKEELTLEGIKQFYINVEREEWKLDTLCDLYETLTITQAVIFLNTRRKVDWLTEKMHARDFTVSALHGDMDQKERDVIMREFRSGSSRVLITTDLLARGIDVQQVSLVINYDLPTNRENYIHRIGRGGRFGRKGVAINFVTEEDKRILRDIETFYNTTVEEMPMNVADLI | 6 | 1 |  | 7 |
| Q9P2E9 (protein, UniProt Q9P2E9 1-1410, looked up, full-length) MDIYDTQTLGVVVFGGFMVVSAIGIFLVSTFSMKETSYEEALANQRKEMAKTHHQKVEKKKKEKTVEKKGKTKKKEEKPNGKIPDHDPAPNVTVLLREPVRAPAVAVAPTPVQPPIIVAPVATVPAMPQEKLASSPKDKKKKEKKVAKVEPAVSSVVNSIQVLTSKAAILETAPKEVPMVVVPPVGAKGNTPATGTTQGKKAEGTQNQSKKAEGAPNQGRKAEGTPNQGKKTEGTPNQGKKAEGTPNQGKKAEGTPNQGKKAEGAQNQGKKVDTTPNQGKKVEGAPTQGRKAEGAQNQAKKVEGAQNQGKKAEGAQNQGKKGEGAQNQGKKAEGAQNQGKKAEGAQNQGKKAEGAQNQGKKAEGAQNQGKKAEGAQNQGKKAEGAQNQGKKVEGAQNQGKKAEGAQNQGKKAEGAQNQGKKAEGAQNQGKKAEGAQNQGKKAEGAQNQGKKAEGAQNQGKKAEGAQNQGKKVEGAQNQGKKAEGAQNQGKKAEGAQNQGKKAEGAQNQGQKGEGAQNQGKKTEGAQGKKAERSPNQGKKGEGAPIQGKKADSVANQGTKVEGITNQGKKAEGSPSEGKKAEGSPNQGKKADAAANQGKKTESASVQGRNTDVAQSPEAPKQEAPAKKKSGSKKKGEPGPPDADGPLYLPYKTLVSTVGSMVFNEGEAQRLIEILSEKAGIIQDTWHKATQKGDPVAILKRQLEEKEKLLATEQEDAAVAKSKLRELNKEMAAEKAKAAAGEAKVKKQLVAREQEITAVQARMQASYREHVKEVQQLQGKIRTLQEQLENGPNTQLARLQQENSILRDALNQATSQVESKQNAELAKLRQELSKVSKELVEKSEAVRQDEQQRKALEAKAAAFEKQVLQLQASHRESEEALQKRLDEVSRELCHTQSSHASLRADAEKAQEQQQQMAELHSKLQSSEAEVRSKCEELSGLHGQLQEARAENSQLTERIRSIEALLEAGQARDAQDVQASQAEADQQQTRLKELESQVSGLEKEAIELREAVEQQKVKNNDLREKNWKAMEALATAEQACKEKLLSLTQAKEESEKQLCLIEAQTMEALLALLPELSVLAQQNYTEWLQDLKEKGPTLLKHPPAPAEPSSDLASKLREAEETQSTLQAECDQYRSILAETEGMLRDLQKSVEEEEQVWRAKVGAAEEELQKSRVTVKHLEEIVEKLKGELESSDQVREHTSHLEAELEKHMAAASAECQNYAKEVAGLRQLLLESQSQLDAAKSEAQKQSDELALVRQQLSEMKSHVEDGDIAGAPASSPEAPPAEQDPVQLKTQLEWTEAILEDEQTQRQKLTAEFEEAQTSACRLQEELEKLRTAGPLESSETEEASQLKERLEKEKKLTSDLGRAATRLQELLKTTQEQLAREKDTVKKLQEQLEKAEDGSSSKEGTSV | 4 | 24 | 68 | 112 |
| O00469 (protein, UniProt O00469 1-737, looked up, full-length) MGGCTVKPQLLLLALVLHPWNPCLGADSEKPSSIPTDKLLVITVATKESDGFHRFMQSAKYFNYTVKVLGQGEEWRGGDGINSIGGGQKVRLMKEVMEHYADQDDLVVMFTECFDVIFAGGPEEVLKKFQKANHKVVFAADGILWPDKRLADKYPVVHIGKRYLNSGGFIGYAPYVNRIVQQWNLQDNDDDQLFYTKVYIDPLKREAINITLDHKCKIFQTLNGAVDEVVLKFENGKARAKNTFYETLPVAINGNGPTKILLNYFGNYVPNSWTQDNGCTLCEFDTVDLSAVDVHPNVSIGVFIEQPTPFLPRFLDILLTLDYPKEALKLFIHNKEVYHEKDIKVFFDKAKHEIKTIKIVGPEENLSQAEARNMGMDFCRQDEKCDYYFSVDADVVLTNPRTLKILIEQNRKIIAPLVTRHGKLWSNFWGALSPDGYYARSEDYVDIVQGNRVGVWNVPYMANVYLIKGKTLRSEMNERNYFVRDKLDPDMALCRNAREMGVFMYISNRHEFGRLLSTANYNTSHYNNDLWQIFENPVDWKEKYINRDYSKIFTENIVEQPCPDVFWFPIFSEKACDELVEEMEHYGKWSGGKHHDSRISGGYENVPTDDIHMKQVDLENVWLHFIREFIAPVTLKVFAGYYTKGFALLNFVVKYSPERQRSLRPHHDASTFTINIALNNVGEDFQGGGCKFLRYNCSIESPRKGWSFMHPGRLTHLHEGLPVKNGTRYIAVSFIDP | 7 |  | 3 | 25 |
| P20020 (protein, UniProt P20020 1-1220, looked up, full-length) MGDMANNSVAYSGVKNSLKEANHDGDFGITLAELRALMELRSTDALRKIQESYGDVYGICTKLKTSPNEGLSGNPADLERREAVFGKNFIPPKKPKTFLQLVWEALQDVTLIILEIAAIVSLGLSFYQPPEGDNALCGEVSVGEEEGEGETGWIEGAAILLSVVCVVLVTAFNDWSKEKQFRGLQSRIEQEQKFTVIRGGQVIQIPVADITVGDIAQVKYGDLLPADGILIQGNDLKIDESSLTGESDHVKKSLDKDPLLLSGTHVMEGSGRMVVTAVGVNSQTGIIFTLLGAGGEEEEKKDEKKKEKKNKKQDGAIENRNKAKAQDGAAMEMQPLKSEEGGDGDEKDKKKANLPKKEKSVLQGKLTKLAVQIGKAGLLMSAITVIILVLYFVIDTFWVQKRPWLAECTPIYIQYFVKFFIIGVTVLVVAVPEGLPLAVTISLAYSVKKMMKDNNLVRHLDACETMGNATAICSDKTGTLTMNRMTVVQAYINEKHYKKVPEPEAIPPNILSYLVTGISVNCAYTSKILPPEKEGGLPRHVGNKTECALLGLLLDLKRDYQDVRNEIPEEALYKVYTFNSVRKSMSTVLKNSDGSYRIFSKGASEIILKKCFKILSANGEAKVFRPRDRDDIVKTVIEPMASEGLRTICLAFRDFPAGEPEPEWDNENDIVTGLTCIAVVGIEDPVRPEVPDAIKKCQRAGITVRMVTGDNINTARAIATKCGILHPGEDFLCLEGKDFNRRIRNEKGEIEQERIDKIWPKLRVLARSSPTDKHTLVKGIIDSTVSDQRQVVAVTGDGTNDGPALKKADVGFAMGIAGTDVAKEASDIILTDDNFTSIVKAVMWGRNVYDSISKFLQFQLTVNVVAVIVAFTGACITQDSPLKAVQMLWVNLIMDTLASLALATEPPTESLLLRKPYGRNKPLISRTMMKNILGHAFYQLVVVFTLLFAGEKFFDIDSGRNAPLHAPPSEHYTIVFNTFVLMQLFNEINARKIHGERNVFEGIFNNAIFCTIVLGTFVVQIIIVQFGGKPFSCSELSIEQWLWSIFLGMGTLLWGQLISTIPTSRLKFLKEAGHGTQKEEIPEEELAEDVEEIDHAERELRRGQILWFRGLNRIQTQIRVVNAFRSSLYEGLEKPESRSSIHNFMTHPEFRIEDSEPHIPLIDDTDAEDDAPTKRNSSPPPSPNKNNNAVDSGIHLTIEMNKSATSSSPGSPLHSLETSL | 13 | 1 | 1 | 36 |
